Reference: PMC12077210, “Di-HAMP domains of a cytoplasmic chemoreceptor modulate nucleoid array formation and downstream signaling” (mBio, 2024)
Blank lines part the entries; values can stand above or below the molecule they belong to.

What was measured:
[1] = biological target: FrzCD^ΔMA (Myxococcus xanthus) (UniProt P43500); assay: SEC-MALS; no DNA; Superdex 200 Increase 10/300, 50 mM NaCl, 50 mM Tris pH 8.0, about 25°C; 100 μL injected at 45 and 150 μM (FrzCD), 70 and 200 μM (ΔMA), 25 μM (ΔH1ΔH2), 25 and 65 μM (ΔH2), 25 μM (ΔH1)
[2] = biological target: FrzCD^ΔMA (Myxococcus xanthus) (UniProt P43500); assay: SEC-MALS; with 35 bp DNA in the injected sample: 70 μM FrzCD with 30 μM DNA; 200 μM FrzCD with 100 μM DNA; 200 μM ΔMA with 100 μM DNA; 100 μM ΔH2 with 50 μM DNA
[3] = biological target: FrzCD^ΔH1ΔH2 (Myxococcus xanthus) (UniProt P43500); assay: SEC-MALS; no DNA; Superdex 200 Increase 10/300, 50 mM NaCl, 50 mM Tris pH 8.0, about 25°C; 100 μL injected at 45 and 150 μM (FrzCD), 70 and 200 μM (ΔMA), 25 μM (ΔH1ΔH2), 25 and 65 μM (ΔH2), 25 μM (ΔH1)
[4] = biological target: FrzCD^ΔH2 (Myxococcus xanthus) (UniProt P43500); assay: as above
[5] = biological target: T1, His6-FrzCDΔH1ΔH2 (BLI) (Myxococcus xanthus, UniProt P43500 1-417, del31-136); assay: BLI; EMSA: 50 mM Tris pH 7.4, 50 mM NaCl, 1 mM DTT, 10% glycerol, 25 C, 30 min, 0.5-2 uM DNA; BLI: 10 mM Tris pH 7.4, 150 mM NaCl, 25 C, 5 nM DNA; conditions: protein: recombinant; tags: N-terminal His6 (pETphos); label: 5' biotin on forward strand; blunt
T1 sequence: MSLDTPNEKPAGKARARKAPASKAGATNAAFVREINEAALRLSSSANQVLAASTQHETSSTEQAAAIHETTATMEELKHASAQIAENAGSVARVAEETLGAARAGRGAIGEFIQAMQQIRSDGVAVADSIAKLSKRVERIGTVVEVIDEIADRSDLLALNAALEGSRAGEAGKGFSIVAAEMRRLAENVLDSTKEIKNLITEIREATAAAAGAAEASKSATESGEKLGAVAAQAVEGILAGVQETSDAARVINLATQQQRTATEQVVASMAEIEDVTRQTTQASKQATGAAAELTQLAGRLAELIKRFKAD

[6] = biological target: T2, His6-FrzCDΔH2 (BLI) (Myxococcus xanthus, UniProt P43500 1-417, del84-136); assay: as above; conditions: protein: recombinant; tags: N-terminal His6 (pETphos); label: 5' biotin on forward strand; blunt
T2 sequence: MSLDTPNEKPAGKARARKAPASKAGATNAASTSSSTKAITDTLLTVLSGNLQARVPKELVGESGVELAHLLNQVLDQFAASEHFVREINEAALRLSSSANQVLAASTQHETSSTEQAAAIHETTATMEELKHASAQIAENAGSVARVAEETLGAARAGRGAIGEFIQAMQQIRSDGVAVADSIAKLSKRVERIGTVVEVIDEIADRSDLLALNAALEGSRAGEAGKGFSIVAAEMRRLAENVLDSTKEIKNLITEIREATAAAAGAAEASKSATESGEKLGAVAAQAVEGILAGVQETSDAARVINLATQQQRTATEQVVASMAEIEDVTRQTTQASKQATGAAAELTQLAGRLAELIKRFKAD

[7] = biological target: T3, His6-FrzCD (BLI) (Myxococcus xanthus, UniProt P43500 1-417); assay: as above; conditions: protein: recombinant; tags: N-terminal His6 (pETphos); label: 5' biotin on forward strand; blunt
T3 sequence: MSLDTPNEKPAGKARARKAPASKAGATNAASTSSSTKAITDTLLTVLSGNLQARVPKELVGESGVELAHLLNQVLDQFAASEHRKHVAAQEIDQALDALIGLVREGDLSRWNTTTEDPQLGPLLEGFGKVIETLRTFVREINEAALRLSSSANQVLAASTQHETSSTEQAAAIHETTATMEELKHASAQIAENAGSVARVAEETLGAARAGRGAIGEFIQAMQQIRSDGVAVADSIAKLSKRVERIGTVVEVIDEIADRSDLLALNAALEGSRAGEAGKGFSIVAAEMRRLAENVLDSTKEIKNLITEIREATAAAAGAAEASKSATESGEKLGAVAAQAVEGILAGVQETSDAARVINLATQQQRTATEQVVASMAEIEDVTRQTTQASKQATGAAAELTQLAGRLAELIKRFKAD

[8] = biological target: T4, FrzCD (EMSA/SEC-MALS) (Myxococcus xanthus, UniProt P43500 1-417); assay: EMSA; EMSA: 50 mM Tris pH 7.4, 50 mM NaCl, 1 mM DTT, 10% glycerol, 25 C, 30 min, 0.5-2 uM DNA; BLI: 10 mM Tris pH 7.4, 150 mM NaCl, 25 C, 5 nM DNA; conditions: protein: recombinant, tags: C-terminal His6 (pHis17), chain copies: 2
T4 sequence: T3 sequence

[9] = biological target: the molecule itself; assay: SEC-MALS; no DNA; Superdex 200 Increase 10/300, 50 mM NaCl, 50 mM Tris pH 8.0, about 25°C; 100 μL injected at 45 and 150 μM (FrzCD), 70 and 200 μM (ΔMA), 25 μM (ΔH1ΔH2), 25 and 65 μM (ΔH2), 25 μM (ΔH1)
[10] = biological target: T4, FrzCD (EMSA/SEC-MALS); assay: SEC-MALS; high-order oligomers at 200 uM protein, 100 uM DNA; EMSA: 50 mM Tris pH 7.4, 50 mM NaCl, 1 mM DTT, 10% glycerol, 25 C, 30 min, 0.5-2 uM DNA; BLI: 10 mM Tris pH 7.4, 150 mM NaCl, 25 C, 5 nM DNA; conditions: protein: recombinant; tags: C-terminal His6 (pHis17); chain copies: 2; blunt
[11] = biological target: T5, FrzCDΔH2 (EMSA/SEC-MALS) (Myxococcus xanthus, UniProt P43500 1-417, del84-136); assay: EMSA; EMSA: 50 mM Tris pH 7.4, 50 mM NaCl, 1 mM DTT, 10% glycerol, 25 C, 30 min, 0.5-2 uM DNA; BLI: 10 mM Tris pH 7.4, 150 mM NaCl, 25 C, 5 nM DNA; conditions: protein: recombinant; tags: C-terminal His6 (pHis17); blunt
T5 sequence: T2 sequence

[12] = biological target: T6, FrzCDΔH1 (EMSA) (Myxococcus xanthus, UniProt P43500 1-417, del32-83); assay: as above; conditions: protein: recombinant; tags: C-terminal His6 (pHis17); blunt
T6 sequence: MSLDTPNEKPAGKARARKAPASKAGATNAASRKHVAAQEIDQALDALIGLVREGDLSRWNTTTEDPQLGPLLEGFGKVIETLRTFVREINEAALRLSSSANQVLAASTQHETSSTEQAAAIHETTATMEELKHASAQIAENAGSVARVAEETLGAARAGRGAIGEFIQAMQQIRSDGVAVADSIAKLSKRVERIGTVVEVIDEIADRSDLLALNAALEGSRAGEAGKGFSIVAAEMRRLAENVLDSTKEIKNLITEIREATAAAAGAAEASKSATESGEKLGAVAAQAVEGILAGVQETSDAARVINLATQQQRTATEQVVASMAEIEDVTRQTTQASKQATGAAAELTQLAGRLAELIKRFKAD

[13] = biological target: T7, FrzCDΔH1ΔH2 (EMSA) (Myxococcus xanthus, UniProt P43500 1-417, del32-136); assay: as above; conditions: protein: recombinant; tags: C-terminal His6 (pHis17); blunt
T7 sequence: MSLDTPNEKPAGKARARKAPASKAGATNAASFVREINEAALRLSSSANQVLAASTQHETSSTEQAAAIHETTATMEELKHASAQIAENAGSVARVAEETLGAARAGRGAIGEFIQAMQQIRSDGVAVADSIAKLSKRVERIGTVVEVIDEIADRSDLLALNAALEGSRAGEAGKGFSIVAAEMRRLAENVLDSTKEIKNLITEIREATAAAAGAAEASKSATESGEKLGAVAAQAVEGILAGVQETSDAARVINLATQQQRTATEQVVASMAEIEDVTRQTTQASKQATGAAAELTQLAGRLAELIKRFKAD

- stoichiometry N [1]: 2
- stoichiometry N [2]: 2
Molecule: FrzCD^ΔMA (from UniProt P43500 1-136) (domain or fragment)

- stoichiometry N [3]: 4
Molecule: FrzCD^ΔH1ΔH2 (from UniProt P43500 1-417) (receptor)

- stoichiometry N [4]: 4
Molecule: FrzCD^ΔH2 (from UniProt P43500 1-417) (receptor)

B1: 178 bp DNA (dsDNA)
DNA 1: GGATCGCATCTGCCTACATCCCCAGCTCCCGGTCGGTCCGCTCGGAACCTAGCCCGGGTCAAAGACCCGGGGTCTATGTTGACCCATTTGGTGGGGATGGGTCTAATTGGACCTGGCGTTTTTTCGCGCCATGGAAATGTCAAGGCCCGTGATTCCAGACTGTTGGGCAGGGAGTT
DNA 2: AACTCCCTGCCCAACAGTCTGGAATCACGGGCCTTGACATTTCCATGGCGCGAAAAAACGCCAGGTCCAATTAGACCCATCCCCACCAAATGGGTCAACATAGACCCCGGGTCTTTGACCCGGGCTAGGTTCCGAGCGGACCGACCGGGAGCTGGGGATGTAGGCAGATGCGATCC
- Kd [5]: 210 nM
- Kd [6]: 1730 nM
- Kd [7]: 650 nM

B2: 8 bp DNA (dsDNA)
DNA 1: ACTGCAGT
DNA 2: ACTGCAGT
- binding result ([8]; blunt): binds

B3: FrzCD^ΔH1 (receptor, Myxococcus xanthus, UniProt P43500 1-417, looked up)
chain: MSLDTPNEKPAGKARARKAPASKAGATNAARKHVAAQEIDQALDALIGLVREGDLSRWNTTTEDPQLGPLLEGFGKVIETLRTFVREINEAALRLSSSANQVLAASTQHETSSTEQAAAIHETTATMEELKHASAQIAENAGSVARVAEETLGAARAGRGAIGEFIQAMQQIRSDGVAVADSIAKLSKRVERIGTVVEVIDEIADRSDLLALNAALEGSRAGEAGKGFSIVAAEMRRLAENVLDSTKEIKNLITEIREATAAAAGAAEASKSATESGEKLGAVAAQAVEGILAGVQETSDAARVINLATQQQRTATEQVVASMAEIEDVTRQTTQASKQATGAAAELTQLAGRLAELIKRFKAD
notes: FrzCD of Myxococcus xanthus with the HAMP1 domain (H1, residues 31 to 83) deleted; The limits of the deletion are the printed limits of the domain; The tag is that of the pHis17 constructs; source: E. coli (BL21-AI, BL21-DE3 or C43), purified (HisTrap, ion exchange)
- stoichiometry N [9]: 4

B4: FrzCD full-length (receptor, Myxococcus xanthus, UniProt P43500 1-417, looked up)
chain: T3 sequence
notes: FrzCD, cytoplasmic methyl-accepting chemotaxis protein of Myxococcus xanthus; DB 1-30, H1 31-83, H2 84-136, MA 137-417; The C-terminal hexa-histidine tag is that of the pHis17 constructs; also called His6-FrzCD; wild type; source: E. coli (BL21-AI, BL21-DE3 or C43), purified (HisTrap, ion exchange)
- stoichiometry N [9]: 2

Molecule: AAAAAAAA (ssDNA) [8-base poly-A ssDNA]
- binding result [8]: binds

B5: 35 bp DNA (dsDNA)
DNA 1: GTCACCTGCTCTAGCTAATAGACTGAGCCGAGGTG
DNA 2: CACCTCGGCTCAGTCTATTAGCTAGAGCAGGTGAC
- binding result [10]: binds
- binding result [11]: binds
- binding result [12]: binds
- binding result [13]: binds
